Target: biotinylated hACE2-fc (residues 18-740) (human) (UniProt Q9BYF1)
Assay: SPR

Chain of UniProt Q9BYF1 (Q9BYF1 18-740): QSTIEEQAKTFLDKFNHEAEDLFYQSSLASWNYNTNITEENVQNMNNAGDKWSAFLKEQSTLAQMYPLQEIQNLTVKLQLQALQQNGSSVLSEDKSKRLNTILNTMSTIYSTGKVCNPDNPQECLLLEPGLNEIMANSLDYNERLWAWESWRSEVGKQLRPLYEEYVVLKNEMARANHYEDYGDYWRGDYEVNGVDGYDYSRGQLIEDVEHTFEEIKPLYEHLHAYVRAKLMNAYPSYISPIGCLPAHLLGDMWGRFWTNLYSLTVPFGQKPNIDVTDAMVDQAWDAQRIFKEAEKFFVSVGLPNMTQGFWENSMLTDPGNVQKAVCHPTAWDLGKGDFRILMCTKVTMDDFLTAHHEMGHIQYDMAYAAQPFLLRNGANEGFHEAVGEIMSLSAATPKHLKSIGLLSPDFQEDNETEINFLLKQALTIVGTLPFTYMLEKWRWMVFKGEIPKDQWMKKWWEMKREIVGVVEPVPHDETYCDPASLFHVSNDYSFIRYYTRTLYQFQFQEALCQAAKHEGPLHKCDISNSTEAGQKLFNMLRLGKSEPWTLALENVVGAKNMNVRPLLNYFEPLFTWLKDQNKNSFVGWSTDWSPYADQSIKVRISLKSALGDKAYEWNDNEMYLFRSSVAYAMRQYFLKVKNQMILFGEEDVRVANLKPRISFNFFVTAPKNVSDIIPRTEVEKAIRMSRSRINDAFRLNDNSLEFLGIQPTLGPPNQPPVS

SARS-CoV-2 B.1.1.7 trimeric spike protein (domain or fragment)
KD1 (first step, two state fit): 193 nM | Kd: 0.04 nM | ka1 (first step, two state fit): 1.31e+06 M⁻¹ s⁻¹ | ka2 (second step, two state fit): 0.053 M⁻¹ s⁻¹ | kd1 (first step, two state fit): 0.025 s⁻¹ | kd2 (second step, two state fit): 0.00011 s⁻¹

SARS-CoV-2 wt trimeric spike protein (domain or fragment)
KD1 (first step, two state fit): 1.8 nM | Kd: 0.041 nM | ka1 (first step, two state fit): 782000 M⁻¹ s⁻¹ | ka2 (second step, two state fit): 0.0105 M⁻¹ s⁻¹ | kd1 (first step, two state fit): 0.00141 s⁻¹ | kd2 (second step, two state fit): 0.000244 s⁻¹
